Assay results as given in article PMC12494034.
Values joined by “and” are separate entries in the source; they are usually repeats but may differ in a detail not shown here. Identical values can stand only once.

What was measured:
Experiment in all cases: cryo-EM structure; single-particle analysis of purified HFTV1 virions (DNA-filled and empty particles sorted by 2D classification) in 18% SW buffer (2.47 M NaCl, 89 mM MgCl2, 85 mM MgSO4, 56 mM KCl, 3 mM CaCl2, 48 mM tris-HCl, pH 7.2); focused refinements of head, turrets, portal, tail, baseplate and tail fibers
[1] = biological target: turret head protein gp31 of HFTV1 (Haloferax tailed virus 1 (HFTV1))
[2] = biological target: baseplate hub gp44 of HFTV1 (Haloferax tailed virus 1 (HFTV1))
[3] = biological target: turret base protein gp30 of HFTV1 (Haloferax tailed virus 1 (HFTV1))
[4] = biological target: portal protein gp13 of HFTV1 (Haloferax tailed virus 1 (HFTV1))
[5] = biological target: tail completion protein gp29 of HFTV1 (Haloferax tailed virus 1 (HFTV1))
[6] = biological target: tail tube protein gp35 of HFTV1 (Haloferax tailed virus 1 (HFTV1))
[7] = biological target: tape measure protein gp40 of HFTV1 (Haloferax tailed virus 1 (HFTV1))
[8] = biological target: tail fiber protein gp42 of HFTV1 (Haloferax tailed virus 1 (HFTV1))
[9] = biological target: capsid stabilization protein gp18 of HFTV1 (Haloferax tailed virus 1 (HFTV1))
[10] = biological target: portal interface protein gp21 of HFTV1 (Haloferax tailed virus 1 (HFTV1))
[11] = biological target: head-tail connector gp26 of HFTV1 (Haloferax tailed virus 1 (HFTV1))
[12] = biological target: major capsid protein gp19 of Haloferax tailed virus 1 (HFTV1) (Haloferax tailed virus 1 (HFTV1))
[13] = biological target: baseplate-tail connector gp41 of HFTV1 (Haloferax tailed virus 1 (HFTV1))

Substance: turret head protein gp31 of HFTV1 (natural protein)
- stoichiometry N [1]: 3

Substance: baseplate hub gp44 of HFTV1 (natural protein)
- stoichiometry N [2]: 3

Substance: turret base protein gp30 of HFTV1 (from UniProt A0A410N6V5 1-115) (natural protein)
- stoichiometry N [3]: 6

Substance: portal protein gp13 of HFTV1 (natural protein)
- stoichiometry N [4]: 12

Substance: tail completion protein gp29 of HFTV1 (natural protein)
- stoichiometry N [5]: 6

Substance: tail tube protein gp35 of HFTV1 (natural protein)
- stoichiometry N [6]: 6

Substance: tape measure protein gp40 of HFTV1 (natural protein)
- stoichiometry N [7]: 6

Substance: tail fiber protein gp42 of HFTV1 (natural protein)
- stoichiometry N [8]: 3

Substance: capsid stabilization protein gp18 of HFTV1 (natural protein)
- stoichiometry N [9]: 3

Substance: portal interface protein gp21 of HFTV1 (natural protein)
- stoichiometry N [10]: 5

Substance: head-tail connector gp26 of HFTV1 (natural protein)
- stoichiometry N [11]: 12

Substance: major capsid protein gp19 of Haloferax tailed virus 1 (HFTV1) (natural protein)
- stoichiometry N [12]: 5 and 6

Substance: baseplate-tail connector gp41 of HFTV1 (natural protein)
- stoichiometry N [13]: 3
